According to article PMC4672733 (Immunity, 2015):

Target: T1, GST-CARD9 (human, UniProt Q9H257 1-536)
T1 sequence (looked up): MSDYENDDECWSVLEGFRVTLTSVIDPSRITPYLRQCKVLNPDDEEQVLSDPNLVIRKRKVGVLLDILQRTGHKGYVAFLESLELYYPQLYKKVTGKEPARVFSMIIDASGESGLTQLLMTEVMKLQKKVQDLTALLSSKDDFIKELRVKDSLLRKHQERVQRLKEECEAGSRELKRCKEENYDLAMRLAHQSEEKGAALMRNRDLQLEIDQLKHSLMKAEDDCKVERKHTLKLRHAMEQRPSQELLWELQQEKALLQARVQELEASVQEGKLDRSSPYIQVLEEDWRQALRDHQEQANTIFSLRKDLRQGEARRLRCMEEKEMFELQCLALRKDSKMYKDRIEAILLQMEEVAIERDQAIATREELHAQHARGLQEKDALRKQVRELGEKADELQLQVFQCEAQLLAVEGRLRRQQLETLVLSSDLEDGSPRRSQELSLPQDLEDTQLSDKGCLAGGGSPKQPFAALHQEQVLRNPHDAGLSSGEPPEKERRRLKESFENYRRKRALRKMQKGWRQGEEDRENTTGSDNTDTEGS
Assay: ELISA

B1: purified FLAG-tagged CARD9 WT (natural protein, human, UniProt Q9H257 1-536, looked up)
chain: MSDYENDDECWSVLEGFRVTLTSVIDPSRITPYLRQCKVLNPDDEEQVLSDPNLVIRKRKVGVLLDILQRTGHKGYVAFLESLELYYPQLYKKVTGKEPARVFSMIIDASGESGLTQLLMTEVMKLQKKVQDLTALLSSKDDFIKELRVKDSLLRKHQERVQRLKEECEAGSRELKRCKEENYDLAMRLAHQSEEKGAALMRNRDLQLEIDQLKHSLMKAEDDCKVERKHTLKLRHAMEQRPSQELLWELQQEKALLQARVQELEASVQEGKLDRSSPYIQVLEEDWRQALRDHQEQANTIFSLRKDLRQGEARRLRCMEEKEMFELQCLALRKDSKMYKDRIEAILLQMEEVAIERDQAIATREELHAQHARGLQEKDALRKQVRELGEKADELQLQVFQCEAQLLAVEGRLRRQQLETLVLSSDLEDGSPRRSQELSLPQDLEDTQLSDKGCLAGGGSPKQPFAALHQEQVLRNPHDAGLSSGEPPEKERRRLKESFENYRRKRALRKMQKGWRQGEEDRENTTGSDNTDTEGS
B1: binds.
